No end group written: not given here.
The substances below were run against NF-κB Essential Modulator (NEMO), full-length recombinant human protein (residues 2–419) with five cysteine-to-alanine substitutions (human) (UniProt Q9Y6K9) (assay: fluorescence polarisation). Details: not given.

Q: How did the Kd turn out when “MBP-IKKβ-His(C716S) D738A (from UniProt O14920 701-745) (domain or fragment)” was run?
A: The Kd was greater than 0.87 µM.

Q: “MBP-IKKβ-His(C716S) L708A (from UniProt O14920 701-745) (domain or fragment)” was tested. Which Kd did it give?
A: The Kd was greater than 0.87 µM.

Q: “MBP-IKKβ-His(C716S) L719A (from UniProt O14920 701-745) (domain or fragment)” was tested. Which Kd did it give?
A: Its Kd is greater than 0.87 µM.

Q: With “MBP-IKKβ-His(C716S) L742A (from UniProt O14920 701-745) (domain or fragment)” as the substance, how does the Kd read?
A: The Kd was greater than 0.87 µM.

Q: “MBP-IKKβ-His(C716S) W739A (from UniProt O14920 701-745) (domain or fragment)” was tested. Which Kd did it give?
A: Its Kd is greater than 0.87 µM.

Q: With “MBP-IKKβ-His(C716S) W741A (from UniProt O14920 701-745) (domain or fragment)” as the substance, how does the Kd read?
A: The Kd was greater than 0.87 µM.

Q: How did the Kd turn out when “WT MBP-IKKβ-His (from UniProt O14920 701-745) (domain or fragment)” was run?
A: The Kd was 0.015 µM.

Q: Which Kd does the source give for “cleaved IKKβ peptide D738A (from UniProt O14920 701-745)” here?
A: The Kd was 11 µM.

Q: With “cleaved IKKβ peptide L708A (from UniProt O14920 701-745)” as the substance, how does the Kd read?
A: Its Kd is 2.7 µM.

Q: Which Kd does the source give for “cleaved IKKβ peptide L719A (from UniProt O14920 701-745)” here?
A: Its Kd is 21 µM.

Q: “cleaved IKKβ peptide L742A (from UniProt O14920 701-745)” was tested. Which Kd did it give?
A: Its Kd is 5.5 µM.

Q: How did the Kd turn out when “cleaved IKKβ peptide W739A (from UniProt O14920 701-745)” was run?
A: The Kd was 35 µM.

Q: Which Kd does the source give for “cleaved IKKβ peptide W741A (from UniProt O14920 701-745)” here?
A: The Kd was 9.3 µM.

Each substance was assayed against full-length recombinant human NEMO (Homo sapiens, UniProt Q9Y6K9, C11A/C131A/C167A/C76A/C95A) (assay: Fluorescence anisotropy). Details: KD2 competition assay vs KD1 direct binding assay.

Q: How did the “KD2 of unlabeled peptide relative to KD1 of FITC-IKKβ” value turn out when “PAKKSEELVAEAHNLCTLLENAIQDTVREQDQSFTALDWSWLQTE [IKKβ(701–745)]” was run?
A: The value was ~ 4 fold.
